US20260124314A1, “ANTl-5T4 ANTIGEN BINDING DOMAINS, ANTIBODY-DRUG CONJUGATES AND METHODS OF USE THEREOF” (Salubris Biotherapeutics, Inc., priority 2023, published 2026)

T1: recombinant human 5T4 protein (human, UniProt Q13641 32-355)
T1 construct: The ELISA protein was bought (Sino biologics and Biorbyt); also called recombinant 5T4 protein; trophoblast glycoprotein (TPBG)
T1 sequence: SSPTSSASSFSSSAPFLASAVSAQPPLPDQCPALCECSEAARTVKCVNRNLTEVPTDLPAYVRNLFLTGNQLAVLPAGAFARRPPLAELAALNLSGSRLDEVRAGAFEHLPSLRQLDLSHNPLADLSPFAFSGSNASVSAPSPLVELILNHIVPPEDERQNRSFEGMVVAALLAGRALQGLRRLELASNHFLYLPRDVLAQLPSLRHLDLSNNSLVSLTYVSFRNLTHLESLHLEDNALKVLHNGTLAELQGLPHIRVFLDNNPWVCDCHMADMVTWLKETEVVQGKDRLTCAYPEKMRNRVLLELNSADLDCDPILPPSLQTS

T2: 5T4 (Homo sapiens, UniProt Q13641)
T2 sequence (Q13641 32-420): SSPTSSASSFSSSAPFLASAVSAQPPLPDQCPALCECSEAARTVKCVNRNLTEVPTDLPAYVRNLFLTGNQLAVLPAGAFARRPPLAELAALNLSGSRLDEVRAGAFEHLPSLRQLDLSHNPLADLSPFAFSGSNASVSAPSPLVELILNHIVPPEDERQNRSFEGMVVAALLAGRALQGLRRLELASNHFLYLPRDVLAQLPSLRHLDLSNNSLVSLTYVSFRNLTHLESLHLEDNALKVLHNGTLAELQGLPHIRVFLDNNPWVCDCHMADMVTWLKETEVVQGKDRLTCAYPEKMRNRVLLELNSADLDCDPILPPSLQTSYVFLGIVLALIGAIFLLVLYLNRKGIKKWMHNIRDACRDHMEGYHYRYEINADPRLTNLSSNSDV


Experiments:
[1] = biological target: T1, recombinant human 5T4 protein; assay: SPR (Biacore 8K, optimized assay): antibody captured on a protein A chip, recombinant 5T4 injected at 0.02-5 µg/mL, one-to-one binding model
Procedure: (§1) SPR kinetic experiments were performed on Biacore 8K systems (GE healthcare) with HBS-EP+ as running buffer. […] Capture level for each antibody was maintained between 50-100 RU. The final analyte binding level at the highest concentration was maintained below 50 RU. […] After each binding cycle, the sensor chip was regenerated with glycine solution (pH 1.5). The resulting sensorgrams were fitted with a one-to-one binding model to extract kinetic constants using Biacore 8K Evaluation Software.

[2] = biological target: T1, recombinant human 5T4 protein; assay: optimized SPR (Biacore 8K), antibody captured on Protein A chip, recombinant 5T4 as analyte 0.02 to 5 µg/mL, 1:1 model
Procedure: as §1

[3] = biological target: T2, 5T4; assay: Non-overlapping epitope binding assay (SPR); conditions: mouse antibody captured, 5T4 injected, then humanized antibody
Procedure: To examine epitope binding of anti-5T4 bispecific antibody-drug conjugate parental monospecific antibodies, surface plasmon resonance (SPR) binding experiments were performed using Biacore™ 8K systems (Cytiva™). HBS-EP+ buffer (10 mM HEPES, 150 mM NaCl, 3 mM EDTA and 0.05% v/v Surfactant P20) was used as running buffer. Anti-mouse IgG antibodies from the mouse antibody capture kit (Cytiva) were coupled in active flow cells on a CM5 sensor chip using an amine coupling kit (Cytiva), whereas the reference cell was left blank. As the first step, mouse monospecific antibody Ab1 or Ab2 was injected over both cells on all experimental channels. Second, test article 5T4 or buffer was injected over both cells on the corresponding channel. Third, humanized monospecific antibody Ab1 or Ab2, or buffer, was injected over both cells on all experimental channels. After each binding cycle, the sensor chip was regenerated with 10 mM Glycine-HCl pH1.7. SPR signals (RU) were recorded in real-time and plotted against time to generate binding sensorgrams. Sensorgrams from multiple channels were overlaid using Biacore 8K Evaluation Software.
To confirm the non-overlapping epitope binding of the select monospecific antibody Nos. 1 and 2, a surface plasmon resonance (SPR) technology-based binding assay was performed. […]

[4] = biological target: T1, recombinant human 5T4 protein; assay: SPR (Biacore 8K): antibody captured on a protein A chip, 5T4 protein injected at 0.625-10 nM, 1:1 binding model
Procedure: (§2) The binding affinity of anti-5T4 bispecific antibody-drug conjugate monospecific and bispecific antibodies to 5T4 was measured by Biacore kinetic experiments using a Protein A sensor chip on Biacore 8K (Cytiva) with HBS-EP+ as running buffer. […] After each binding cycle, the sensor chip was regenerated with glycine solution, pH 1.5. Signals from reference surface and an ensemble of buffer blank injections were subtracted from binding signals to correct for nonspecific binding and injection artifacts. The corrected experimental signals were globally fitted to a 1:1 binding model to extract kinetic constants, including association rate constant (ka), dissociation rate constant (kd), and equilibrium dissociation constant (KD), using the Biacore 8K Evaluation Software.

[5] = biological target: T1, recombinant human 5T4 protein; assay: SPR (Biacore 8K), antibody captured on Protein A chip, 5T4 as analyte 0.625-10 nM, 1:1 model
Procedure: as §2

[6] = biological target: T1, recombinant human 5T4 protein; assay: SPR (Biacore 8K): antibody captured on a protein A chip, 5T4 protein injected at 0.625-10 nM, 1:1 binding model; FIG. 4C on D00005 prints the same value as 7.42e-11
Procedure: as §2

[7] = biological target: FcγRI (Abcam) (UniProt P12314); assay: SPR (Biacore 8K), antibody captured on Protein A chip, Fc receptor as analyte, 1:1 model
FcγRI (Abcam), sequence (P12314 16-288 limits assumed): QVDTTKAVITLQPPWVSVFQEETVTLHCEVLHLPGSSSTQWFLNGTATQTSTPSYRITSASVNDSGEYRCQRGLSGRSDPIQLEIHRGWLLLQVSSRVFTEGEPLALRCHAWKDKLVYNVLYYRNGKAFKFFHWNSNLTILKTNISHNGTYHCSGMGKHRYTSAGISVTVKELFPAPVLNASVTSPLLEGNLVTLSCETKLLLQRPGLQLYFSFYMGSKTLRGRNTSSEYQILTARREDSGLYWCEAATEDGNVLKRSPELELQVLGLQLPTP

[8] = biological target: FcγRIIIa (158V) (UniProt P08637); assay: as above
FcγRIIIa (158V), sequence (P08637 17-208 F176V): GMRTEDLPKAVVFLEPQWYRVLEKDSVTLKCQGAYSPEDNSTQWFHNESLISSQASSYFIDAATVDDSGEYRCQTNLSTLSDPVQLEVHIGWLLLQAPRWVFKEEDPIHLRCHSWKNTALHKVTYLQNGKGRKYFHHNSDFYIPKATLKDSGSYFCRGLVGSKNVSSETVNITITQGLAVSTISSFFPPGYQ

Molecule | koff [1] [s⁻¹] | kon [1] [M⁻¹ s⁻¹] | Kd [2] [nM] | epitope binding on 5T4 [3] | koff [4] [s⁻¹] | kon [4] [M⁻¹ s⁻¹] | Kd [5] [nM] | Kd [1] [pM] | other results
mouse antibody No. 2 ((m)Ab2) (antibody, V domains shown, Mouse IgG; also called mouse Ab2; mouse monospecific antibody Ab2) VH: EVKLLESGGGLVQPGGSLKLSCAASGFDFSRYWMTWVRQAPGKGLEWIGEINPDSRTINYTPSLKDKFIISRDNAKNTLYLHMSKVRSEDTALYYCARPDHDYNPYYFNYWGQGTTLTVSS VL: DIVLTQSPASLAVSLGQRATISCRPSQSVSTSSNSYIHWYQQKPGQPPKLLIKYASNLESGVPARFSGSGSGTDFTLNIHPVEEEDTATYYCQQSWEIPLTFGAGTKLELK | 0.000273 | 203000 | 1.34 | non-overlapping epitopes | – | – | – | – | –
humanized antibody No. 2 ((h)Ab2) (antibody, V domains shown, also called humanized Ab2; humanized monospecific antibody Ab2) VH: EVQLLESGGGLVQPGGSLRLSCAASGFDFSRYWMTWVRQAPGKGLEWVSEINPDSRTINYTPSLKDRFTISRDNAKNTLYLQMNSLRAEDTAVYYCARPDHDYNPYYFNYWGQGTTVTVSS VL: DIVLTQSPASLAVSLGQRATISCRPSQSVSTSSNSYIHWYQQKPGQPPKLLIKYASNLESGVPARFSGSGSGTDFTLTISPVEAEDTATYYCQQSWEIPLTFGGGTKLEIK | – | – | – | – | 0.000283 | 884000 | 0.32 | – | –
Bs3-HL biparatopic anti-5T4 antibody (Bs3 orientation, scFv in the VH-VL orientation) (bispecific antibody, human IgG1, kappa, The heavy chain is Ab1 heavy chain (IgG1), linker, then Ab2 scFv (VH-linker-VL); Bs3-HL is described as the form without FCA, so its real Fc may have L, S and N at those positions; also called bispecific antibody in the Bs3-HL orientation; Bispecific 5T4-BS3 antibody) heavy: QVQLVQSGAEVKKPGASVKVSCKASGYSFTDYYMHWVRQAPGQGLEWMGRVSPNNGATNTNQKFKDRVTMTRDTSISTAYMELRSLRSEDTAVYYCARSTMITSYYFDYWGQGTLVTVSSASTKGPSVFPLAPSSKSTSGGTAALGCLVKDYFPEPVTVSWNSGALTSGVHTFPAVLQSSGLYSLSSVVTVPSSSLGTQTYICNVNHKPSNTKVDKRVEPKSCDKTHTCPPCPAPEFLGGPCVFLFPPKPKDTLMISRTPEVTCVVVDVSHEDPEVKFNWYVDGVEVHNAKTKPREEQYNSTYRVVSVLTVLHQDWLNGKEYKCKVSNKALPAPIEKTISKAKGQPREPQVYTLPPSREEMTKNQVSLTCLVKGFYPSDIAVEWESNGQPENNYKTTPPVLDSDGSFFLYSKLTVDKSRWQQGNVFSCSVMHEALHAHYTQKSLSLSPGKGGGGSGGGGSGGGGSEVQLLESGGGLVQPGGSLRLSCAASGFDFSRYWMTWVRQAPGKCLEWVSEINPDSRTINYTPSLKDRFTISRDNAKNTLYLQMNSLRAEDTAVYYCARPDHDYNPYYFNYWGQGTTVTVSSGGGGSGGGGSGGGGSGGGGSDIVLTQSPASLAVSLGQRATISCRPSQSVSTSSNSYIHWYQQKPGQPPKLLIKYASNLESGVPARFSGSGSGTDFTLTISPVEAEDTATYYCQQSWEIPLTFGCGTKLEIK light: DIVMTQSPSFLSVSVGDRVTITCKASQSVSTDVAWYQQKPGQAPKLLIYFASDRYTGVPDRFSGSGSGTDFTFTISSLQAEDVAVYYCQQDYSSPPTFGGGTKLEIKRTVAAPSVFIFPPSDEQLKSGTASVVCLLNNFYPREAKVQWKVDNALQSGNSQESVTEQDSKDSTYSLSSTLTLSKADYEKHKVYACEVTHQGLSSPVTKSFNRGEC | – | – | – | – | – | – | 0.742 | 3.63 | Kd [6]: 0.0742 nM
Bs3-HL biparatopic anti-5T4 antibody conjugated to MMAE (Example 4) (bispecific antibody, human IgG1, kappa, monomethyl auristatin E (MMAE) conjugated; attachment residues, chain and drug-to-antibody ratio not stated for this experiment, Antibody-drug conjugate of Bs3-HL; also called bispecific antibody in the Bs3-HL orientation conjugated to MMAE; bispecific antibody with conjugated MMAE) heavy: QVQLVQSGAEVKKPGASVKVSCKASGYSFTDYYMHWVRQAPGQGLEWMGRVSPNNGATNTNQKFKDRVTMTRDTSISTAYMELRSLRSEDTAVYYCARSTMITSYYFDYWGQGTLVTVSSASTKGPSVFPLAPSSKSTSGGTAALGCLVKDYFPEPVTVSWNSGALTSGVHTFPAVLQSSGLYSLSSVVTVPSSSLGTQTYICNVNHKPSNTKVDKRVEPKSCDKTHTCPPCPAPEFLGGPCVFLFPPKPKDTLMISRTPEVTCVVVDVSHEDPEVKFNWYVDGVEVHNAKTKPREEQYNSTYRVVSVLTVLHQDWLNGKEYKCKVSNKALPAPIEKTISKAKGQPREPQVYTLPPSREEMTKNQVSLTCLVKGFYPSDIAVEWESNGQPENNYKTTPPVLDSDGSFFLYSKLTVDKSRWQQGNVFSCSVMHEALHAHYTQKSLSLSPGKGGGGSGGGGSGGGGSEVQLLESGGGLVQPGGSLRLSCAASGFDFSRYWMTWVRQAPGKCLEWVSEINPDSRTINYTPSLKDRFTISRDNAKNTLYLQMNSLRAEDTAVYYCARPDHDYNPYYFNYWGQGTTVTVSSGGGGSGGGGSGGGGSGGGGSDIVLTQSPASLAVSLGQRATISCRPSQSVSTSSNSYIHWYQQKPGQPPKLLIKYASNLESGVPARFSGSGSGTDFTLTISPVEAEDTATYYCQQSWEIPLTFGCGTKLEIK light: DIVMTQSPSFLSVSVGDRVTITCKASQSVSTDVAWYQQKPGQAPKLLIYFASDRYTGVPDRFSGSGSGTDFTFTISSLQAEDVAVYYCQQDYSSPPTFGGGTKLEIKRTVAAPSVFIFPPSDEQLKSGTASVVCLLNNFYPREAKVQWKVDNALQSGNSQESVTEQDSKDSTYSLSSTLTLSKADYEKHKVYACEVTHQGLSSPVTKSFNRGEC | 5.99e-06 | 376000 | – | – | – | – | – | 15.9 | –
humanized antibody No. 1 ((h)Ab1) (antibody, V domains shown, The FcγR assay calls it 'without Fc mutations'; also called humanized Ab1; humanized monospecific antibody Ab1) VH: QVQLVQSGAEVKKPGASVKVSCKASGYSFTDYYMHWVRQAPGQGLEWMGRVSPNNGATNTNQKFKDRVTMTRDTSISTAYMELRSLRSEDTAVYYCARSTMITSYYFDYWGQGTLVTVSS VL: DIVMTQSPSFLSVSVGDRVTITCKASQSVSTDVAWYQQKPGQAPKLLIYFASDRYTGVPDRFSGSGSGTDFTFTISSLQAEDVAVYYCQQDYSSPPTFGGGTKLEIK | – | – | – | – | 0.000248 | 1.25e+06 | 0.198 | – | Kd [7]: 3.73 nM; Kd [8]: 50.5 nM
mouse antibody No. 1 ((m)Ab1) (antibody, V domains shown, Mouse IgG, captured by anti-mouse IgG antibodies; also called mouse Ab1; mouse monospecific antibody Ab1) VH: EVQLQQSGPDLVKPGASVKISCKASGYSFTDYYMHWVKQSHGKSLEWIGRVSPNNGATNTNQKFKDKAILTVDKSSSTAYMDLRSLTSEDSAVYYCARSTMITSYYFDYWGQGTTLTVSS VL: SIVMTQTPKFLLVSAGDRITITCKASQSVSTDVAWYQQKPGQSPKLLIYFASDRYTGVPDRFTGSGNGTDFTFTITTVQAEDLAIYFCQQDYSSPPTFGGGTKLEIK | 0.000421 | 259000 | 1.43 | non-overlapping epitopes | – | – | – | – | –
